Experiment: soluble on expression in E. coli; label from the status in PepcDB or PDB records

Row | Sequence | soluble on expression in E. coli
1 | MGSDKIHHHHHHMCSPTNFLYEPFSSDAVTQNYDQNLKCTKCGAYYSMACSLREQNVWTCLFCNQSNSNAELPLVPSNTYTLTSAKKEILSRRTIMIIDAICDPHELNYLVSILCNNYITRQQEPLSIITIQQSGHVILHNAVNHRRDAVFSINEFMTKYNLDKLNASYFEKKISEINQESYWFDKSTQGSLRKLLREICKIANKVNISSKRDKRCTGLALFVSSVLASQCSLSAYCHIVSFLNGPCTKGGGKVMSRERGESMRQNHHFESKSSQLQLSKSPTKFYKKMLEKFANQSLIYEFFIASLDQIGILEMSPLITSSMAVSQFDSFNDERFAMSFQKYLNLRDHNAIYNCHSKIMTAKNAIVVKDFPKYSLNPKNLSLPLEISLGHNSAEAPIQFQTTFENQTEKYIRIETLLLPKANRSFGAQNEIVFSMKKIASRIIDSFAYSSKHTKELMKQLFLLPNQIRGKDVDMVNLIQWCYHIYRSPILSVRNTSPDERYLFLHRIINASKDTCLSLCKPFIWSYSDLKHDWIVLDVPLTRAQILQDDKTTICVDGGSYLVLRRGKLLEKEGRELCCKLLNDLQRFPQPLYVETKTGGSQDRFLKSKIIPLDITDKETLGTEDMTFNEYFNLFTDLSGSK | not soluble
2 | MEKGWKRADLHVHTTCSFDVLPAKDLNPLSLYEKSLEIGMDFVTFTDHDTVEAYEILGWDREKLTPGAEMTLYDPEFAGHTLHINVFELDREYFSELREIAEIEHDLKSFTGYLKRHRLPFVYNHPFWFEFHRQPNPSAVPKLAKLFPVLEYNMHELKQKNELTIALAERFGKSIVATTDTHTGKMGQVYTLAKGDSFREYFRNIEKGRNYIVTGDLTRELLIEEMNTWIDLIFEKSQKNRDIKNYLTGIKSLDALVKISRSTLLNYSPRLNRTAMNLFYMISNTGLPASFYIHSEKSFAREIEKDIEINNRK | not soluble
3 | MSDANPVFADYFKSWYGTYKIPGKSRTTVVRYETIYKKLNAYYGKAKLAKVTRKSYQIFMNEYGKKHAKDTVYKTNGSIRSCVRDGVADGIIQKDFTQKINLTWNLEHHHHHH | not soluble
4 | VFRQTFLEFSQRTVSQARLDIGRKKLQELSSTFARAENEFGVPAGVIAAFWAMETDFGAVQGDFNTRNALVTLSHDCRRPELFRPQLLALIEMVQHGDLDPATNTGAWAGEIGQVQMLPKDIIAFGVDGDGNGHINVKDSAPDAILTAAKFIQHLGFKKGEPWMQEVSVPENLPWEKSGLGGSLTAGDWFALGVTPRDGNKNFASLPAALIMPQGRKGPTFITYPNFNIYLEWNQSFIYTTSAAYFANRLMGAPVY | not soluble
5 | MGSDKIHHHHHHMFAGAWKNYRNILCVRPDNMGDVLMSQPAMRALKESVPGRKITLLTSTAGACIAPFIPEVDETIPFDVPWVKTTETNGAQRLLALAGELLALQLDAAVIFTVYSQNPLPAGMLCYLAGIKAVLGYCRENPYQLINQWVPDREPLDYVVHEVERQLRLVEMAGAKTSDTRLLLKIPEETRKEATDRVWEILNVAGIRAGMGWLVLHAGVSEEKRLYPARDYITACQSLIRQGYKILLTGSGSERDYVDQIARQLSDAAINVAGELSIAELIVLVEAAPVLISNNTGPVHIATAVGTPVVVLYAMTNPQHTPWQVPSKVLYFEVLPELRTKNQLLQSFPGSSTPRASPEAIVAAVGELVSPRRKHGSFIPSPLRNPVPTCNSLPDTALAACFTPHNEYGMCPPIRYGEDV | not soluble
6 | MSLEFLRDFGKTALIHQGNEISYAELLENIASFANLMDITPNERVGIVMENRPEWVYAFYGTWKKGGIVVPIDFMSTPQEIRYILEDAEPSIIFCSDETYPRVREASEDLKVEIVNVDNLVLPTPWEGIVRRDEDDVAVLPYTSGTTGNPKGVMLTFKNLMSNIRGVSEVGIAGKEDKTLAILPFHHMYPLMTTMLLPLYLGATVVFLDKLTPEDIIEKLQKYQITVLIGVPRLYQLFHRRIMEEINKNVLAKNLFKLMKKVKNQKIRKTVFKKVHDAFGGRIKYMVSGGAKLPLDIAQDLTTLGFTVIEGYGLTETSPIVSFNPPNRIKLGSVGVPIKGVEVMTTSEGEIIVRGDNVMKGYWKKPEETQKVIINGWFYTGDLGEIDEEGYIYITGRKKEIIVLGSGKNVFPEEIESKILAKAPYIKEVGVFEKDGKLLALIYPDFEKVKELGITNLEETIKWEVIDKVNRELPEWKRVVGFKIVKTELPKTRLGKLRRFLLPQIYEKAEEIKEEKTEDYSVFETEEGRIIKEFLEKISQKEVKPGDHLEIDLGLDSLAKVELLGFIETNFGVSLSEEELSKNLVVKDLIELVRSKKKSVDTKEVSWKDILTKAKPYELYHYPLIFELGRKLLKLYFKLYHRIDVRGLENLPKPPFIIAPNHQSYLDAFAIAAVLPKEIAHETYFLGDETYFRNPITSTFGKLAHVITVNVNKGLKESLQKTAYALMSGKVVVIFPEGARTRTEELMEFKKGVAILARELGVPIVPVAIEGAYEAWSVYDKFPKPKKIKIMFGKPVDPDEKSYEEITKELYEWIKSMLEFLKKESEGHHHHHH | soluble
7 | MDQLSEKQIWYYHIIPEYQTEKSFYACVRRSGMIKFDTFYFPHMLSARETQRSIKFGDGVWSGCLYDPDIYTDGKISIQGVGGVLFPREAEIGGCVCLCLIFLIKLGLSTKYMKSHVSFDVSCDL | not soluble
8 | SAKAVRIGAEGYKLKLDGAVQEIDGRSVVLVDVDSITPLMFGGSMKEKAKLLDAKFLRKYYEENKDFFFLSTREEKKMFVTLQLAREYAELVDDQFLRGFFEKALESAQKAF | soluble
9 | MRFPELEELKNRRTLKWTRFPEDVLPLWVAESDFGTCPQLKEAMADAVEREVFGYPPDATGLNDALTGFYERRYGFGPNPESVFAIPDVVRGLKLAIEHFTKPGSAIIVPLPAYPPFIELPKVTGRQAIYIDAHEYDLKEIEKAFADGAGSLLFCNPHNPLGTVFSEEYIRELTDIAAKYDARIIVDEIHAPLVYEGTHVVAAGVSENAANTCITITATSKAWNTAGLKCAQIFFSNEADVKAWKNLSDITRDGVSILGLIAAETVYNEGEEFLDESIQILKDNRDFAAAELEKLGVKVYAPDSTYLMWLDFAGTKIEEAPSKILREEGKVMLNDGAAFGGFTTCARLNFACSRETLEEGLRRIASVL | not soluble
10 | MNNKKTGVLLVNLGTPTAPTAAAVKQFLSEFLHDKRVVDMNRFIWCPLLHGVILPIRAPKVAKLYESVWMEEGSPLLVYSQRQVKALEARLSMPVALGMTYGEPRIKSGIESLEQQGCDEIIILPLYPQYSRTTTAAVFDQIAKQYKTTPVLPNFTMIHNYHDHPLYIKALANSVRQSWERNGKGDYVLCSYHGIPQRFVDNGDIYAAHCERTTELLAQELGLTSEQIGMSYQSRFGREEWLKPYTSETLKALAPKGIKSLDIISPAFSSDCLETLEELSEECKEIFMESGGQKYTFIPCLNDDELHIEMMADIVSSKIFNK | not soluble
11 | MAHHHHHHMVLITSNCARVAAFTRKAACSGALCDRHRCISGGGRGDLFTRHAGAFKPPAFGVLRGLTHSSQTTHPQTGQLQARKRIQHAMHDRTLSGSGHHRTAVATWSYLLHSLRQNVEQAVPDALYEKLLTDEVPLTPAESRQLADAHRLLRFELQKRIGLLEDSLADAALPYLLQWPALFQRAWLRLPMDQGRASVTEANHDAVVPAPPSFVHAPAALPVTEWAPTLSPASPPACSNGLIGRGALVPRLAQLTRHVIRCVEEDLGRLEHVSEPREDGVPRSRRQVALEAAWRAQWASLLTWHAGVSYGMG | soluble
12 | MGSDKIHHHHHHMFAPFAGETSRGEADMSGDLDQATMDRLFAKARTYSKFTKAPVSDDLLRQAWDLARMGPTSVNCQPMRVVFVRSSAAKERLKPALAPGNLDKTMAAPVTAIIAHDMEFYEQLPKLFPHADARAWFVGNEAMIQSTAFRNGTLQGAYFILALRAIGLDCGPMSGFDNAKLDEAFFKGTTLRSNFLVNIGHGDAAGLYPRGPRLDFDEACRVE | not soluble
13 | MGSDKIHHHHHHATRSGKTPVSVELEIGGLPGDESVDDAIDPDLENPNTSFDLLFIPKEFTFETQAISGDLTAVPIRPSEGNTHTMRHFGMGDVRGALTGWHVTAEIPHMRNEAHSLLGIITFQLTGSYARYDKTLRRFFMTNTMYGLDFSEDPAAPDFPTNPIIIGNGATLMSNAGDRKGQGMWSGRMTDISLAIQTPVSQLFPGAYTGSIIWNLISGPV | not soluble
14 | MAHHHHHHMLSHSSQLCSLWIESARVIRLDHCRCPGRLVSTGLGVSSEIRKTNLNGKSYTLDPVEMEPVFGVNRASDFSEKGGLCSTNETNEKNVLLSGGDIVSRNQKEVDKVERVALVAEKEHEEEEPLARNLHNTIGPTPYRVSWYDYGSVSPSKRFTYWAYRRLKELPTDWQEYYRRMLYQEISAARYVNQTWDCFMMVVDGYRKAKWILKKYGISIDESLIPKPYNNFWEETTHEERVWAHRRSHQMKELQALYRDEDELVFGAHTMDRREVSHGSIKNVQTGMQGGTPVHALDLPAPCESEIKTSPQIEDMSSALMSSIEDDKLWNPVLRSRIHTRRSREEVELYSFEDDEEDENSPS | soluble
15 | MPMYKLTPTFPPNFEVHPKIACYPVGSYHNPSFGGVGPSDAVQVESDPRKALEHKQLSLIEQLKAQTEELKKLLVSLGEAGKAERSAQKPAEKAPKEPEKSAGAASSAPGVPGAPAKLDKDAKKEARKAAKAEAVKKLASGEAPPQKSAKKTVNSTPWTVQDDRKTWETNLTLTVNLPTSLVAYEPQEQLKNATLTVRDVDLPWARALAKVGASRGVSFEGEVKNQTKEKKSSLKVVKGPAPSLQLEKTTVKSLQTIWKLLGSSLGLFSRRPQQVLSASHQAIWLGKAEQILAGSCDQSFVTREASQFLARFDSLSSQWEVCVADIVFRSLLNLGEHLPNNVELWAKKIDALIV | soluble
16 | MNIVSTSVALLLAAASAEVENRKSSNATEVNMTETAQIENHPYVGMWVTGDGHIRQELLPNGRYDEARGKRKSAYQGRYEVKGNHIDYWDDTGFTADGEFVDDVLHHGGMIFYRQK | not soluble
17 | NSDSMILVTVNPKTKKTTMTSLERDTLTTLSGPKNNEMNGVEAKLNAAYAAGGAQMAIMTVQDLLNITIDNYVQINMQGLIDLVNAVGGITVTNEFDFPISIAENEPEYQATVAPGTHKINGEQALVYARMRYDDPEGDYGRQKRQREVIQKVLKKILA | not soluble
18 | MGSDKIHHHHHHMELSQNAPNELEYIREFLNTWRIPNDTREAIDLLQTEEDIKLFMKEYFHEEFPFHTIEELKSFREDIRMTIEGEGSLEKWLEKYPFHVYIKEDMKGITYEPIHEETVYTKVLSIVLIAVQENLWGRLKACPDCRWVFYDNSRNGSKRWCGMYAGEEGGRACGTIAKVKNYRAKRKGRSGYNV | not soluble
19 | MGHHHHHHSHMPYLVIEHLEDISEWLLLEYKHVAQWWGDKLIFTNVKPKERKILAEIGSVVTESITKLPVDRSKVIVLDLQAKEELKPEDISEDTIIVVGGILGDAIPRGRTRKLITSKMEGVKVRHIGRPQFSIDGASIIAKLISEGKRLEEIEYEENPTIKLDEFSEITFHYAVPKLNGKLLLTPGLIELQKKELGYLEEDEDDGLIEFFEGKGEL | soluble
20 | MNHPAHHGPTVTPKRRHPDSTGAAPVGIVIATRNRRASLAVTVRNLLALPERPDVLVVDNASTDDTRAMLARDFPQVRVLPLPYNRGALARTHGVRALDTPYVAFSDDDSWWAPGALGAAARHFDDHPRLGLLSARTLVGPGDAADPLNDLLADSPLGTATDLPGTQVLGFLGCAAVARRTAYLDAGGYHPLLFFGGEETLLAYDLAARGWGVTHCPDVIAHHHPHPRPRTGRPAVVRRNALLTAWLRRPLPHALARTRALAADARRDPHARHALRETLTRLPAALRARRPLPPHVERAARLLDGADGPDGPGGAVSLEHHHHHH | soluble
